Data set [1] is described as follows: Gel filtration, oligomeric state in solution. Type of data set: physicochemical. Particulars: Superdex200 10/300 GL, 20 mM Tris pH 7.5, 150 mM NaCl, 50 μM ZnCl2, 1 mM DTT. As to the method: Supplementary Fig. 3 Superimposition of gel-filtration curves of PHD6 and ePHD6 domains of MLL3 and MLL4. Gel filtration chromatography of MLL3 ePHD6 (red), PHD6 (pink), MLL4 ePHD6 (brown), PHD6 (green) and protein molecular weight standards (blue, Bio-Rad). Samples were loaded to the Superdex200 10/300 GL (GE Healthcare) column in the buffer containing 20 mM Tris, pH 7.5, 150 mM NaCl, 50 μM ZnCl2,and1mMDTT. […]

Data set [2] has as its system recombinant nucleosomes (histone H3K4). Kind of data set: In vitro histone methyltransferase (HMT) assay of MLL3/MLL4 constructs. Type of data set: biochemical. To be noted: recombinant nucleosomes 0.5 μg, 2.5 μCi [3H]-SAM, 30 °C, 16 h, autoradiography (Fig. 3b, c). As to the method: Mammalian expression plasmids encoding different fusions of MLL3 PHD and SET domains were subcloned into the pFLAG-CMV2 vector (Sigma-Aldrich, E7033) and were transiently expressed in HEK 293T cells (ATCC® ACS-4500™) by using Lipofectamine 2000 (ThermoFisher Scientific, 11668027) according to manufacturer’s protocol. Two days after transfection, cells were harvested and then lysed by mammalian lysis buffer (20 mM Tris-HCl, 137 mM NaCl, 1.5 mM MgCl2, 1 mM EDTA, 10% glycerol, 1% Triton X-100, 0.2 mM PMSF, 1 μg mL^−1 aprotinin, 2.5 μg mL^−1 leupeptin, and 1 μg mL^−1 pepstatin at pH 8.0). FLAG immunoprecipitation (FLAG IP) was performed in a similar way as described previously. In brief, total cell lysates were incubated with anti-FLAG M2 Affinity Gel (Sigma-Aldrich, A2220) in 4 °C for 5 h and were extensively washed with BC500 (20 mM Tris-HCl, 500 mM KCl, 1.5 mM MgCl2, 0.2 mM EDTA, 10% glycerol, 0.2 mM PMSF at pH 8.0). […]
HMT assay was performed according to a previously described method with minor modifications. […] The signals for HMT activity were detected by autoradiography. The input of the MLL3/4 proteins and nucleosomes were detected by mouse monoclonal anti-FLAG M2 (Sigma-Aldrich, F3165, 1:1000) and rabbit polyclonal anti-H3 antibody (Abcam, ab1791, 1:1000), respectively. […]

B1: MLL4 ePHD6: extended PHD6 domain of MLL4 (protein)
chain: VSCMQCGAASPGFHCEWQNSYTHCGPCASLVTCPICHAPYVEEDLLIQCRHCERWMHAGCESLFTEDDVEQAADEGFDCVSCQPYVVKPV
modifications: left off: GST, N-terminal, cleaved | His tag, N-terminal, cleaved
Take B1: in data set [1], the “oligomeric state in solution” value is “dimer in solution”.

B2: MLL3 ePHD6: extended PHD6 domain of MLL3 (protein)
chain: VWCRHCGATSAGLRCEWQNNYTQCAPCASLSSCPVCYRNYREEDLILQCRQCDRWMHAVCQNLNTEEEVENVADIGFDCSMCRPYMPASN
modifications: left off: GST, N-terminal, cleaved | His tag, N-terminal, cleaved
Take B2: in data set [1], the “oligomeric state in solution” value is listed as “monomer in solution”.

B3: MLL3_C: C terminus of MLL3 with the catalytic SET domain (protein)
chain: DHTFRVGSLIFHTIGQLLPQQMQAFHSPKALFPVGYEASRLYWSTRYANRRCRYLCSIEEKDGRPVFVIRIVEQGHEDLVLSDISPKGVWDKILEPVACVRKKSEMLQLFPAYLKGEDLFGLTVSAVARIAESLPGVEACENYTFRYGRNPLMELPLAVNPTGCARSEPKMSAHVKRFVLRPHTLNSTSTSKSFQSTVTGELNAPYSKQFVHSKSSQYRKMKTEWKSNVYLARSRIQGLGLYAARDIEKHTMVIEYIGTIIRNEVANRKEKLYESQNRGVYMFRMDNDHVIDATLTGGPARYINHSCAPNCVAEVVTFERGHKIIISSSRRIQKGEELCYDYKFDFEDDQHKIPCHCGAVNCRKWMN
modifications: left off: FLAG, end not stated, kept
notes: C terminus of MLL3 with the catalytic SET domain
For the molecule B3, the nucleosomal methyltransferase activity entry in data set [2] is listed as “did not show any detectable nucleosomal methylation activity”.

These data come from PMC6318328, “Structural insights into trans-histone regulation of H3K4 methylation by unique histone H4 binding of MLL3/4” (Nature Communications, 2019).
